Experimental data reported in patent publication US20230158141A1.
Positions count from the first letter of the chain named. Blank lines part the entries; values can stand above or below the binder they belong to.

How the values were obtained:
His tagged CD20 protein = His tagged CD20 protein (UniProt P11836); assay: ELISA, His tagged CD20 protein
His tagged VEGF protein = His tagged VEGF protein (UniProt P15692); assay: ELISA, His tagged VEGF protein
His tagged VEGF protein, sequence (P15692 other isoform, or with tags, fused parts or gaps limits assumed): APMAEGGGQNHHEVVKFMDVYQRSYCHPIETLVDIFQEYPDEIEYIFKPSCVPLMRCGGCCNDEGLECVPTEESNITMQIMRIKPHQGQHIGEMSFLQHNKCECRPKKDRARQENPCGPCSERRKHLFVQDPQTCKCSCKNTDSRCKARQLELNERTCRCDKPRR

B3: Beva-se002 conjugated to S47 (antibody, human IgG1, kappa, V domains shown)
VH: EVQLVESGGGLVQPGGSLRLSCAASGYTFTNYGMNWVRQAPGKGLEWVGWINTYTGEPTYAADFKRRFTFSLDTSKSTAYLQMNSLRAEDTAVYYCAKYPHYYGSSHWYFDVWGQGTLVTVSS
VL: DIQMTQSPSSLSASVGDRVTITCSACQDISNYLNWYQQKPGKAPKVLIYFTSSLHSGVPSRFSGSGSGTDFTLTISSLQPEDFATYYCQQYSTVPWTFGQGTKVEIKR
modifications: S47 on Cys 26
Blocking efficiency of S47 (His tagged VEGF protein): 16 fold

B4: Beva-se003 conjugated to S47 (antibody, human IgG1, kappa, V domains shown)
VH: B3 VH
VL: B3 VL with C26S, Y49C
modifications: S47 on Cys 49
Blocking efficiency of S47 (His tagged VEGF protein): 26 fold

B5: Beva -se004 conjugated to S47 (antibody, human IgG1, kappa, V domains shown)
VH: B3 VH
VL: B3 VL with C26S, T51C
modifications: S47 on Cys 51
Blocking efficiency of S47 (His tagged VEGF protein): 13 fold

Now from value to binder:

Blocking efficiency of S47 (His tagged CD20 protein): 16 fold
B1: Ritu-se001 conjugated to S47 (antibody, human IgG1, kappa, V domains shown)
VH: QVQLQQPGAELVKPGASVKMSCKASGYTFTSCNMHWVKQTPGRGLEWIGAIYPGNGDTSYNQKFKGKATLTADKSSSTAYMQLSSLTSEDSAVYYCARSTYYGGDWYFNVWGAGTTVTVSA
VL: QIVLSQSPAILSASPGEKVTMTCRASSSVSYIHWFQQKPGSSPKPWIYATSNLASGVPVRFSGSGSGTSYSLTISRVEAEDAATYYCQQWTSNPPTFGGGTKLEIKR
modifications: S47 on Cys 32

Blocking efficiency of S47 (His tagged CD20 protein): 8 fold
B2: Ritu-se002 conjugated to S47 (antibody, human IgG1, kappa, V domains shown)
VH: B1 VH with C32Y, K63C
VL: B1 VL
modifications: S47 on Cys 63
